# B1: ZBED3 (parent)
# chain: GPGFHAGTSALWRHLRSAHRRELE
# Variants of: B1
# Assay: protein stability index of a GFP-peptide fusion (GPS, HEK-293T) (PSI 1-6); higher = more stable
# Settings: c terminus: a fixed tail appended
# 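Note: lentivirally expressed fusions sorted by FACS into six bins by GFP to DsRed ratio, PSI derived from sequencing read proportions per bin multiplied by bin number.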
row,Variant,protein stability index
1,GPGFHAGCSALWRHLRSAHRRELE,2.51
2,GPGFHAGVSALWRHLRSAHRRELE,1.84
3,GPGFHAGISALWRHLRSAHRRELE,2.09
4,GPGFHAGMSALWRHLRSAHRRELE,2.37
5,GPGFHAGRSALWRHLRSAHRRELE,2.37
6,GPGFHAGQSALWRHLRSAHRRELE,1.98
7,GPGFHAGHSALWRHLRSAHRRELE,2.4
8,GPGFHAGWSALWRHLRSAHRRELE,2.23
9,GPGFHAGLSALWRHLRSAHRRELE,2.52
10,GPGFHAGASALWRHLRSAHRRELE,1.75
11,GPGFHAGFSALWRHLRSAHRRELE,1.64
12,GPGFHAGSSALWRHLRSAHRRELE,2.89
13,GPGFHAGYSALWRHLRSAHRRELE,2.37
14,GPGFHAGDSALWRHLRSAHRRELE,3.67
15,GPGFHAGPSALWRHLRSAHRRELE,2.88
16,GPGFHAGGSALWRHLRSAHRRELE,2.26
17,GPGFHAGESALWRHLRSAHRRELE,2.48
18,GPGFHAGNSALWRHLRSAHRRELE,2.91
19,GPGFHAGKSALWRHLRSAHRRELE,2.5
20,GPGFHAGTSALWRHLRCAHRRELE,1.56
21,GPGFHAGTSALWRHLRAAHRRELE,2.14
22,GPGFHYGTSALWRHLRSAHRRELE,2.59
23,GPGFHAGTSALWPHLRSAHRRELE,2.12
24,GPGFHAGTSALWEHLRSAHRRELE,2.14

row,Variant,protein stability index
1,GPGFHAGTSALWFHLRSAHRRELE,1.73
2,GPGFHAGTSALWTHLRSAHRRELE,1.99
3,GPGFHAGTSALWAHLRSAHRRELE,2.8
4,GPGFHAGTSALWNHLRSAHRRELE,2.13
5,GPGFHAGTSALWMHLRSAHRRELE,1.99
6,GPGFHAGTSALWWHLRSAHRRELE,1.93
7,GPGFHAGTSALWVHLRSAHRRELE,1.88
8,GPGFHAGTSALWLHLRSAHRRELE,1.79
9,GPGFHAGTSALWHHLRSAHRRELE,1.98
10,GPGFHAGTSALWIHLRSAHRRELE,1.88
11,GPGFHAGTSALWCHLRSAHRRELE,1.47
12,GPGFHAGTSALWQHLRSAHRRELE,2.72
13,GPGFHAGTSALWYHLRSAHRRELE,2.1
14,GPGFHAGTSALWSHLRSAHRRELE,1.36
15,GPGFHAGTSALWGHLRSAHRRELE,1.81
16,GPGFHAGTSALWKHLRSAHRRELE,2.08
17,GPGFHAGTSALGRHLRSAHRRELE,1.64
18,GPGFHAGTSALLRHLRSAHRRELE,2.24
19,GPGFHAGTSALVRHLRSAHRRELE,2.44
20,GPGFHAGTSALRRHLRSAHRRELE,3.35
21,GPGFHAGTSALERHLRSAHRRELE,3.17
22,GPGFHAGTSALTRHLRSAHRRELE,2.54
23,GPGFHAGTSALSRHLRSAHRRELE,2.61
24,GPGFHAGTSALFRHLRSAHRRELE,2.1

row,Variant,protein stability index
1,GPGFHAGTSALMRHLRSAHRRELE,1.84
2,GPGFHAGTSALKRHLRSAHRRELE,3.18
3,GPGFHAGTSALCRHLRSAHRRELE,1.45
4,GPGFHAGTSALYRHLRSAHRRELE,2.63
5,GPGFHAGTSALIRHLRSAHRRELE,2.07
6,GPGFHAGTSALARHLRSAHRRELE,3.38
7,GPGFHAGTSALDRHLRSAHRRELE,2.92
8,GPGFHAGTSALPRHLRSAHRRELE,2.14
9,GPGFHAGTSALQRHLRSAHRRELE,2.72
10,GPGFHAGTSALHRHLRSAHRRELE,2.16
11,GPGFHAGTSALNRHLRSAHRRELE,2.3
12,GPGFHAGTSALWRDLRSAHRRELE,2.13
13,GPGFHAGTSALWRCLRSAHRRELE,2.17
14,GPGFHAGTSALWRTLRSAHRRELE,2.28
15,GPGFHAGTSALWRNLRSAHRRELE,2.16
16,GPGFHAGTSALWRFLRSAHRRELE,1.68
17,GPGFHAGTSALWRWLRSAHRRELE,1.74
18,GPGFHAGTSALWRQLRSAHRRELE,2.51
19,GPGFHAGTSALWRVLRSAHRRELE,2.33
20,GPGFHAGTSALWRELRSAHRRELE,2.33
21,GPGFHAGTSALWRMLRSAHRRELE,1.99
22,GPGFHAGTSALWRKLRSAHRRELE,2.2
23,GPGFHAGTSALWRYLRSAHRRELE,1.98
24,GPGFHAGTSALWRALRSAHRRELE,2.3

row,Variant,protein stability index
1,GPGFHAGTSALWRPLRSAHRRELE,2.1
2,GPGFHAGTSALWRRLRSAHRRELE,2.32
3,GPGFHAGTSALWRILRSAHRRELE,1.78
4,GPGFHAGTSALWRGLRSAHRRELE,2.76
5,GPGFHAGTSALWRSLRSAHRRELE,2.2
6,GPGFHAGTSALWRLLRSAHRRELE,2.62
7,GPGFHAGTSALWRHWRSAHRRELE,2.7
8,GPGFHAGTSALWRHTRSAHRRELE,2.05
9,GPGFHAGTSALWRHYRSAHRRELE,2.1
10,GPGFHAGTSALWRHNRSAHRRELE,2.57
11,GPGFHAGTSALWRHQRSAHRRELE,1.78
12,GPGFHAGTSALWRHMRSAHRRELE,2.7
13,GPGFHAGTSALWRHARSAHRRELE,1.93
14,GPGFHAGTSALWRHGRSAHRRELE,1.27
15,GPGFHAGTSALWRHSRSAHRRELE,2.21
16,GPGFHAGTSALWRHFRSAHRRELE,2.16
17,GPGFHAGTSALWRHPRSAHRRELE,1.76
18,GPGFHAGTSALWRHHRSAHRRELE,2.34
19,GPGFHAGTSALWRHKRSAHRRELE,3.15
20,GPGFHAGTSALWRHIRSAHRRELE,2.3
21,GPGFHAGTSALWRHRRSAHRRELE,3.45
22,GPGFHAGTSALWRHDRSAHRRELE,1.87
23,GPGFHAGTSALWRHERSAHRRELE,1.76
24,GPGFHADTSALWRHLRSAHRRELE,3.25

row,Variant,protein stability index
1,GPGFHAMTSALWRHLRSAHRRELE,2.35
2,GPGFHAPTSALWRHLRSAHRRELE,2.23
3,GPGFHANTSALWRHLRSAHRRELE,2.69
4,GPGFHARTSALWRHLRSAHRRELE,2
5,GPGFHAITSALWRHLRSAHRRELE,2.31
6,GPGFHAQTSALWRHLRSAHRRELE,2.47
7,GPGFHATTSALWRHLRSAHRRELE,2.21
8,GPGFHAETSALWRHLRSAHRRELE,5.51
9,GPGFHAVTSALWRHLRSAHRRELE,2.19
10,GPGFHASTSALWRHLRSAHRRELE,2.73
11,GPGFHAATSALWRHLRSAHRRELE,2.62
12,GPGFHAWTSALWRHLRSAHRRELE,1.52
13,GPGFHACTSALWRHLRSAHRRELE,1.75
14,GPGFHAYTSALWRHLRSAHRRELE,2.68
15,GPGFHALTSALWRHLRSAHRRELE,1.45
16,GPGFHAKTSALWRHLRSAHRRELE,2.01
17,GPGFHAGTSFLWRHLRSAHRRELE,2.33
18,GPGFHAGTSQLWRHLRSAHRRELE,2.43
19,GPGFHAGTSCLWRHLRSAHRRELE,2.32
20,GPGFHAGTSPLWRHLRSAHRRELE,2.28
21,GPGFHAGTSHLWRHLRSAHRRELE,2.63
22,GPGFHAGTSYLWRHLRSAHRRELE,2.31
23,GPGFHAGTSELWRHLRSAHRRELE,4.86
24,GPGFHAGTSLLWRHLRSAHRRELE,1.88

row,Variant,protein stability index
1,GPGFHAGTSSLWRHLRSAHRRELE,2.52
2,GPGFHAGTSILWRHLRSAHRRELE,1.85
3,GPGFHAGTSDLWRHLRSAHRRELE,3.22
4,GPGFHAGTSWLWRHLRSAHRRELE,2.38
5,GPGFHAGTSRLWRHLRSAHRRELE,3.4
6,GPGFHAGTSTLWRHLRSAHRRELE,3.08
7,GPGFHAGTSNLWRHLRSAHRRELE,2.67
8,GPGFHAGTSGLWRHLRSAHRRELE,2.67
9,GPGFHAGTSKLWRHLRSAHRRELE,2
10,GPGFHAGTSMLWRHLRSAHRRELE,2.02
11,GPGFHAGTSVLWRHLRSAHRRELE,2.6
12,GPGFHAGTSALWRHLLSAHRRELE,1.81
13,GPGFHAGTSALWRHLYSAHRRELE,1.75
14,GPGFHAGTSALWRHLISAHRRELE,2.12
15,GPGFHAGTSALWRHLMSAHRRELE,2.97
16,GPGFHAGTSALWRHLDSAHRRELE,2.25
17,GPGFHAGTSALWRHLGSAHRRELE,1.73
18,GPGFHAGTSALWRHLWSAHRRELE,1.66
19,GPGFHAGTSALWRHLFSAHRRELE,2.07
20,GPGFHAGTSALWRHLTSAHRRELE,2.23
21,GPGFHAGTSALWRHLCSAHRRELE,1.62
22,GPGFHAGTSALWRHLESAHRRELE,2.41
23,GPGFHAGTSALWRHLQSAHRRELE,2.33
24,GPGFHAGTSALWRHLPSAHRRELE,2.33

row,Variant,protein stability index
1,GPGFHAGTSALWRHLSSAHRRELE,2.21
2,GPGFHAGTSALWRHLKSAHRRELE,2.41
3,GPGFHAGTSALWRHLNSAHRRELE,2.34
4,GPGFHAGTSALWRHLVSAHRRELE,1.84
5,GPGFHAGTSALWRHLASAHRRELE,2.45
6,GPGFHAGTSALWRHLHSAHRRELE,2.17
7,GPGFHAGTMALWRHLRSAHRRELE,2.44
8,GPGFHAGTRALWRHLRSAHRRELE,3.03
9,GPGFHAGTDALWRHLRSAHRRELE,2.99
10,GPGFHAGTFALWRHLRSAHRRELE,2.23
11,GPGFHAGTLALWRHLRSAHRRELE,3.28
12,GPGFHAGTCALWRHLRSAHRRELE,2
13,GPGFHAGTHALWRHLRSAHRRELE,2.53
14,GPGFHAGTKALWRHLRSAHRRELE,2.68
15,GPGFHAGTPALWRHLRSAHRRELE,2.08
16,GPGFHAGTEALWRHLRSAHRRELE,3.25
17,GPGFHAGTIALWRHLRSAHRRELE,1.74
18,GPGFHAGTWALWRHLRSAHRRELE,2.05
19,GPGFHAGTVALWRHLRSAHRRELE,1.92
20,GPGFHAGTGALWRHLRSAHRRELE,1.71
21,GPGFHAGTNALWRHLRSAHRRELE,2.68
22,GPGFHAGTAALWRHLRSAHRRELE,2.11
23,GPGFHAGTTALWRHLRSAHRRELE,3.06
24,GPGFHAGTQALWRHLRSAHRRELE,2.96

row,Variant,protein stability index
1,GPGFHAGTYALWRHLRSAHRRELE,3.23
2,GPGFHAGTSACWRHLRSAHRRELE,2.41
3,GPGFHAGTSAKWRHLRSAHRRELE,3.32
4,GPGFHAGTSAIWRHLRSAHRRELE,2.32
5,GPGFHAGTSAVWRHLRSAHRRELE,1.99
6,GPGFHAGTSAWWRHLRSAHRRELE,2.85
7,GPGFHAGTSATWRHLRSAHRRELE,2.16
8,GPGFHAGTSAHWRHLRSAHRRELE,3.28
9,GPGFHAGTSAFWRHLRSAHRRELE,1.7
10,GPGFHAGTSAGWRHLRSAHRRELE,1.74
11,GPGFHAGTSAEWRHLRSAHRRELE,2.52
12,GPGFHAGTSANWRHLRSAHRRELE,2.3
13,GPGFHAGTSAPWRHLRSAHRRELE,2.23
14,GPGFHAGTSAMWRHLRSAHRRELE,2.64
15,GPGFHAGTSAAWRHLRSAHRRELE,1.71
16,GPGFHAGTSARWRHLRSAHRRELE,3.19
17,GPGFHAGTSAQWRHLRSAHRRELE,2.54
18,GPGFHAGTSADWRHLRSAHRRELE,3.33
19,GPGFHAGTSAYWRHLRSAHRRELE,3.19
20,GPGFHAGTSASWRHLRSAHRRELE,2.03
